Bridges are numbered along the chain shown (N, C = ends). Where no end group is shown, it is not given here.

The target of assay [1] is T1, Extracellular IL-6R (interleukin-6 receptor) (UniProt P08887 20-365).
T1 sequence: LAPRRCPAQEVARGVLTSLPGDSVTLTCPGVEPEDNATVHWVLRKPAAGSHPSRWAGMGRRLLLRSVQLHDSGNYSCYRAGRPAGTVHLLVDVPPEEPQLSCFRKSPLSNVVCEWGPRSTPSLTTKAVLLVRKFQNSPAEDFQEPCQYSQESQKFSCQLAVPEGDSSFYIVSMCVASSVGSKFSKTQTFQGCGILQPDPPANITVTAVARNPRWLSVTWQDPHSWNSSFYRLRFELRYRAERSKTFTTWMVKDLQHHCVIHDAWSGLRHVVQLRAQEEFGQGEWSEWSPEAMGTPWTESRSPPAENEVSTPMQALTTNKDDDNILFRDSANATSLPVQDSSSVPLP
The assay is described as follows: cell-based or functional assay.

For assay [2], the target named is T1, Extracellular IL-6R (interleukin-6 …). The assay is described as follows: ELISA; […] (200 nM), 30 min; […]. Particulars: both partners purified. In general terms: In an ELISA, binding on a coated surface is turned into a signal by an enzyme label.
For assay [3] the target is unchanged. As to the kind of experiment: ELISA; competitive inhibition: 45 nM biotinylated IL-6 and 1 nM-2 μM protein/peptide with IL-6R coated beads (350 nM) in PBS-BSA, 25°C, 1 h; detected with SA-HRP. Particulars: both partners purified.
Assay [4] concerns the target Extracellular IL-6R (interleukin-6 receptor) (UniProt P08887).

B1: R10-13 (designed binder)
chain: LVCYQLLACRPGTLETCPDDFTCVATRHTLGHNLTQYCSHAHAIPTPRARTGCCQTDKCNG
For the molecule B1, in assay [1], the “IC50, inhibition of the IL-6 dependent proliferation of DS-1 cells (IL-6 with IL-6R)” value amounted to 1400 nM. For the same molecule, binding in assay [2] was put at a Kd of 48 ± 8 nM. This molecule yielded an IC50 in assay [3] of 113 ± 7 nM.
With LVCYAPLPYTPGTLETGPDDFTCV (disulfide 3-23) [14-L1], in assay [4], the EC50 (ED50), proliferation of DS-1 cells in the absence of IL-6 was 30 nM.

B2: R10-15 (designed binder)
chain: LVCYQLLACRPGTLETCPDDFTCVATRHTLGHNLTQYCSHAYAIPACETPASCCQTDKCNG
In assay [2], B2 registered a Kd of 115 ± 9 nM. Further, in assay [3], the IC50 stood at 102 ± 13 nM.

What is called Kd is the constant that tells how readily two partners part at equilibrium. The IC50 is the concentration at which inhibition is half-maximal.

(Values after PMC3024951 (Molecular Brain, 2011).)
